pKd: −log10 of the molar value.

Test [1] addresses Polyclonal human IgG Gammanorm. The experiment in a line: Binder coupled to Praesto Pure45 agarose beads. Mass of injected polyclonal hIgG (Gammanorm) at 10% breakthrough, 6 min residence time (Example 10).
A further test addresses human IgG1. As to the kind of experiment: ELISA, IgG1 antibody coated on plate, detection with Strep-Tactin-HRP.

In test [1], R PROTEIN A came in with a dynamic binding capacity of 37.4 mg/mL.
In turn, “Staphylococcus aureus Protein A domain B” gave a pKd in the test with human IgG1 of 8.51.

The pKd is the Kd on a negative log10 scale, so that one unit is a factor of ten.

Source of the values: US20200238197A1.
